29 sequences from the Immune Epitope Database (IEDB) can be followed below.

Conditions in all cases: source organism: Vaccinia virus WR
The target of one assay is HLA-A*11:01. The experiment in a line: IEDB peptide-MHC binding, purified MHC/competitive/radioactivity; ≥ and ≤ were set here for values at or beyond the usual limits of such assays.
A further assay has as its target HLA-A*03:01. Described as above.
In assay [1] the target is HLA-A*68:01. The assay is described as above.
In a further assay the target is HLA-A*33:01. Briefly: IEDB peptide-MHC binding, purified MHC/competitive/radioactivity; filed as Kd, often an IC50 or EC50 that approximates it; ≥ and ≤ were set here for values at or beyond the usual limits of such assays.
The target of assay [2] is HLA-A*31:01. The description is as above.
For assay [3], the target named is HLA-A*29:02. Briefly: IEDB peptide-MHC binding, purified MHC/competitive/radioactivity; ≥ and ≤ were set here for values at or beyond the usual limits of such assays.
Assay [4] addresses HLA-A*30:02. Described as above.
In assay [5] the target is HLA-A*01:01. The description is as above.
The target in assay [6] is HLA-A*26:01. The assay is described as above.
Assay [7] concerns the target HLA-A*29:02. Briefly: IEDB peptide-MHC binding, purified MHC/competitive/radioactivity; filed as Kd, often an IC50 or EC50 that approximates it; ≥ and ≤ were set here for values at or beyond the usual limits of such assays.
The target in assay [8] is HLA-A*30:02. The description is as above.
The target in assay [9] is HLA-A*26:01. The description is as above.
A further assay addresses HLA-A*02:02. The experiment in a line: IEDB peptide-MHC binding, purified MHC/competitive/radioactivity; ≥ and ≤ were set here for values at or beyond the usual limits of such assays.
Assay [10] deals with HLA-A*02:06. The assay is described as above.
Assay [11] has as its target HLA-A*68:02. The description is as above.
For another assay, the target named is HLA-A*02:03. The description is as above.
The target in assay [12] is HLA-A*68:02. The experiment in a line: IEDB peptide-MHC binding, purified MHC/competitive/radioactivity; filed as Kd, often an IC50 or EC50 that approximates it; ≥ and ≤ were set here for values at or beyond the usual limits of such assays.
Assay [13] has as its target HLA-A*68:01. Described as above.
A further assay has as its target HLA-B*07:02. The experiment in a line: IEDB peptide-MHC binding, purified MHC/competitive/radioactivity; ≥ and ≤ were set here for values at or beyond the usual limits of such assays.
Assay [14] has as its target HLA-B*35:01. The description is as above.
Assay [15] has as its target HLA-B*54:01. Briefly: IEDB peptide-MHC binding, purified MHC/competitive/radioactivity; filed as Kd, often an IC50 or EC50 that approximates it; ≥ and ≤ were set here for values at or beyond the usual limits of such assays.
A further assay deals with HLA-B*51:01. The assay is described as above.
For the next assay, the target named is HLA-B*53:01. The description is as above.
The target of assay [16] is HLA-A*31:01. The experiment in a line: IEDB peptide-MHC binding, purified MHC/competitive/radioactivity; ≥ and ≤ were set here for values at or beyond the usual limits of such assays.
Assay [17] has as its target HLA-B*35:01. The experiment in a line: IEDB peptide-MHC binding, purified MHC/competitive/radioactivity; filed as Kd, often an IC50 or EC50 that approximates it; ≥ and ≤ were set here for values at or beyond the usual limits of such assays.
Assay [18] has as its target HLA-B*54:01. The experiment in a line: IEDB peptide-MHC binding, purified MHC/competitive/radioactivity; ≥ and ≤ were set here for values at or beyond the usual limits of such assays.
The target in the next assay is HLA-A*24:02. The description is as above.
A further assay has as its target HLA-A*23:01. The assay is described as above.
In assay [19] the target is HLA-A*02:06. Briefly: IEDB peptide-MHC binding, purified MHC/competitive/radioactivity; filed as Kd, often an IC50 or EC50 that approximates it; ≥ and ≤ were set here for values at or beyond the usual limits of such assays.
The target in assay [20] is HLA-A*01:01. The description is as above.

As usually defined, the IC50 is the concentration that inhibits the measured activity by half. For orientation: Kd means the concentration at which binding is half-saturated. Take AVFKDSFLRK: the results for the concentration for half-maximal inhibition (IC50) with HLA-A*11:01, with HLA-A*03:01 and with HLA-A*68:01 [1] were 121 nM, 8.2 nM and 47 nM, respectively. The Kd was at least 42.4 µM with HLA-A*33:01 and 0.686 µM with HLA-A*31:01 [2].
For the sequence DMCDIYLLY, the IC50 in the assay with HLA-A*29:02 [3] was 89 nM; in the assay with HLA-A*30:02 [4] it was 55 nM; in the assay with HLA-A*01:01 [5] it was 28 nM; with HLA-A*26:01 [6] it was 82 nM.
As to FGDSKEPVPY, the IC50 with HLA-A*01:01 [5] stood at 137 nM. Also, the Kd worked out at 564 nM in the assay with HLA-A*29:02 [7], 8170 nM with HLA-A*30:02 [8] and 5.68 µM with HLA-A*26:01 [9].
For the sequence FLNISWFYI, the IC50 came to 0.17 nM with HLA-A*02:02, 1 nM in the assay with HLA-A*02:06 [10], 240 nM with HLA-A*68:02 [11] and 0.33 nM with HLA-A*02:03.
FLSMLNLTKY: the results for the IC50 in the assay with HLA-A*29:02 [3], in the assay with HLA-A*30:02 [4] and with HLA-A*01:01 [5] were 154 nM, 500 nM and 267 nM, respectively. For the same sequence, the Kd with HLA-A*26:01 [9] stood at 7.83 µM.
For the sequence FLTSVINRV, the IC50 in the assay with HLA-A*02:02 is 0.11 nM; with HLA-A*02:06 [10], 4.8 nM; in the assay with HLA-A*68:02 [11], 0.42 nM; in the assay with HLA-A*02:03 it was 1.4 nM.
As for FTIDFKLKY, the IC50 with HLA-A*29:02 [3] was found to be 1.4 nM; with HLA-A*01:01 [5], 60 nM; with HLA-A*26:01 [6], 21 nM. Also, in the assay with HLA-A*30:02 [8], the Kd came to 1050 nM.
In the case of GLNDYLHSV, the IC50 was found to be 0.74 nM in the assay with HLA-A*02:02, 3.9 nM in the assay with HLA-A*02:06 [10] and 1.4 nM with HLA-A*02:03. Besides, in the assay with HLA-A*68:02 [12], the Kd worked out at 2660 nM.
GTIAGGVCYY: the IC50 was determined as 4.5 nM with HLA-A*11:01 and 132 nM in the assay with HLA-A*03:01. In addition, the Kd in the assay with HLA-A*33:01 was at least 38.6 µM; in the assay with HLA-A*68:01 [13], 11.1 µM; in the assay with HLA-A*31:01 [2] it was 8.45 µM.
Turning to HPRHYATVM, the values for the IC50 in the assay with HLA-B*07:02 and with HLA-B*35:01 [14] were 0.87 nM and 63 nM, respectively. For the same sequence, the Kd with HLA-B*54:01 [15] stood at 4380 nM; with HLA-B*51:01, 14.7 µM; with HLA-B*53:01, 3.06 µM.
For ILDDNLYKV, the IC50 with HLA-A*02:02 was determined as 4.5 nM; with HLA-A*02:06 [10] it was 8.9 nM; in the assay with HLA-A*02:03, 61 nM. Moreover, in the assay with HLA-A*68:02 [12], the Kd is at least 48300 nM.
IVFNLPVSK: the IC50 with HLA-A*11:01 stood at 4.6 nM; in the assay with HLA-A*03:01, 2.2 nM; with HLA-A*68:01 [1], 5.4 nM; in the assay with HLA-A*31:01 [16], 23 nM. For the same sequence, the Kd in the assay with HLA-A*33:01 was found to be 3.17 µM.
With KLKIISNDYK, the half-inhibitory concentration (IC50) with HLA-A*11:01 turned out to be 464 nM; in the assay with HLA-A*03:01, 4.5 nM; with HLA-A*31:01 [16], 137 nM. Also, the Kd with HLA-A*33:01 and with HLA-A*68:01 [13] was at least 50 µM throughout.
Turning to KPKPAVRFAI, the IC50 with HLA-B*07:02 came to 0.18 nM. The Kd with HLA-B*54:01 [15] was 680 nM; with HLA-B*35:01 [17], at least 36.3 µM; with HLA-B*51:01, at least 50 µM; in the assay with HLA-B*53:01, at least 20.5 µM.
With KTKNFTIDFK, the IC50 in the assay with HLA-A*11:01 came to 22 nM; in the assay with HLA-A*03:01, 11 nM; with HLA-A*68:01 [1] it was 144 nM; with HLA-A*31:01 [16], 14 nM. Also, the equilibrium dissociation constant (Kd) in the assay with HLA-A*33:01 is at least 40.4 µM.
Take KVLHVTDTNK: the values for the concentration for half-maximal inhibition (IC50) with HLA-A*11:01, with HLA-A*03:01 and with HLA-A*31:01 [16] were 10 nM, 8.1 nM and 466 nM, respectively. For the same sequence, the results for the Kd with HLA-A*33:01 and with HLA-A*68:01 [13] were at least 50 µM and 3.02 µM, respectively.
KVMFVIRFK: the IC50 with HLA-A*11:01 was determined as 7.3 nM; with HLA-A*03:01, 1.4 nM; with HLA-A*68:01 [1], 30 nM; with HLA-A*31:01 [16], 4.9 nM. Besides, the Kd with HLA-A*33:01 amounted to 0.857 µM.
As for NLFDIPLLTV, the IC50 came to 0.1 nM with HLA-A*02:02, 1.5 nM with HLA-A*02:06 [10], 8.1 nM in the assay with HLA-A*68:02 [11] and 0.25 nM in the assay with HLA-A*02:03.
With NQVKFYFNK, the IC50 with HLA-A*11:01 was determined as 2.2 nM; with HLA-A*03:01, 192 nM; with HLA-A*68:01 [1], 5.8 nM; in the assay with HLA-A*31:01 [16], 15 nM. Further, the Kd with HLA-A*33:01 came out at 0.822 µM.
QSDTVFDYY: the IC50 with HLA-A*01:01 [5] worked out at 1 nM. Moreover, the Kd is at least 50000 nM in the assay with HLA-A*29:02 [7], 2950 nM with HLA-A*30:02 [8] and at least 50 µM with HLA-A*26:01 [9].
QSITRSLIY: the results for the 50% inhibitory concentration (IC50) with HLA-A*29:02 [3], in the assay with HLA-A*30:02 [4] and with HLA-A*01:01 [5] were 295 nM, 291 nM and 74 nM, respectively. The Kd with HLA-A*26:01 [9] is 4.99 µM.
Consider RPMSLRSTII, for which the IC50 with HLA-B*07:02 worked out at 0.43 nM; with HLA-B*54:01 [18], 265 nM. In addition, the Kd was at least 45.9 µM in the assay with HLA-B*35:01 [17], 9.62 µM with HLA-B*51:01 and 1.23 µM in the assay with HLA-B*53:01.
With RYRFAFLYLL, the results for the IC50 with HLA-A*24:02 and in the assay with HLA-A*23:01 were 166 nM and 41 nM, respectively. In addition, in the assay with HLA-A*29:02 [7], the Kd amounted to 16200 nM.
As to SMHFYGWSL, the Kd with HLA-A*02:06 [19] came to 2040 nM.
For the sequence SQSDTVFDY, in the assay with HLA-A*30:02 [4], the IC50 was 2.3 nM. The figures for the equilibrium dissociation constant (Kd) with HLA-A*29:02 [7], with HLA-A*01:01 [20] and with HLA-A*26:01 [9] were 844 nM, 3.02 µM and 1.86 µM, respectively.
Turning to VSVNNVCHMY, the IC50 with HLA-A*30:02 [4] worked out at 3.7 nM; with HLA-A*01:01 [5] it was 130 nM. Besides, the Kd stood at 1080 nM in the assay with HLA-A*29:02 [7] and 4.26 µM with HLA-A*26:01 [9].
The like results for VTDTNKFDNY were, in that order, 256 nM, 1.6 nM, at least 50000 nM and at least 50 µM.
On to VTSSGAIYK, for which the IC50 with HLA-A*11:01 is 3.1 nM; with HLA-A*03:01, 10 nM; in the assay with HLA-A*68:01 [1], 24 nM. Also, the Kd with HLA-A*33:01 was at least 21.4 µM; with HLA-A*31:01 [2], 3.97 µM.
As to VWINNSWKF, the IC50 in the assay with HLA-A*29:02 [3] amounted to 4.9 nM; in the assay with HLA-A*24:02 it was 6.4 nM; in the assay with HLA-A*23:01 it was 5.3 nM.
